Test: soluble on expression in E. coli; label from the status in PepcDB or PDB records

Row | Sequence | soluble on expression in E. coli
1 | MSLAQTSDWDSVVAQAKKEGSVTFNVWYLQPQWRSFVKDFEQKYDIKVRIPEGSIDGNMNKLLAETRREQGKIDVIALSIAQLPITMGAKSLAKVDDLPGYQDAYHQLQNVDTQGYAVAFWGNQTGFAYDPQQMGDRPLPQTMEELQRFIDANPKRFGYNDPNNGGAGEAFIQRIVTTLSGDFSSESDTVDPTVIKDWQKGWQWFASNNNNITRTASGADSLTRLNDGELMLTPAWEDHLSGLQKTGAITSRLKFYVPEFGMPGGGNIASIAANSPHPAASRVFLNWLIQADTQKALNEAFGSTPMNKQLNADVKQPDTPVQFYGKAYSMQMKKEFARQVMTREGHHHHHH | soluble
2 | MAEEQQNSDQSNGGNVIPTPEEVATFLHKTVEEGGWEKCWEEEITPWDQGRATPLIVHLVDTSSLPLGRALVPGCGGGHDVVAMASPERFVVGLDISESALAKANETYGSSPKAEYFSFVKEDVFTWRPTELFDLIFDYVFFCAIEPEMRPAWAKSMYELLKPDGELITLMYPITDHVGGPPYKVDVSTFEEVLVPIGFKAVSVEENPHAIPTRKGKEKLGRWKKIN | not soluble
3 | MSLATLDVNPELYQAQLADKIARLKAMFVDYSMPELEVFESPVANYRMRAEFRIWHEGDDMYYIMFNQETREKYRVDQFPAASRLINDLMPLLMDAMKGSPILRHKLFQVDFLSTLSGEILVSLLYHRQLSEEWITAAQALKQRLNDEGFNLNLIGRARKMKVVLDRDYVVENLQVNGQPYVYKQVENSFTQPNAKVAEKMLEWAVDCTQESKGDLLELYCGNGNFSLALAQNFERVLATELAKPSVEAAQFNIAANQIGNVQIIRMSAEEFTQAMEGKREFNRLKDAGVDLQSYRCNTIFVDPPRSGMDIDTCKMVQGYERILYISCNPETLQENLQVLGETHQVVRFALFDQFPYTHHMEAGVMLERKKEGHHHHHH | soluble
4 | MAGDPMSIPFFSFSWAVMSNLTYLQGYPEQLLSQVRTLINEQRLGDVLAKRYPGTHDYATDKALWQYTQDLKNQFLRNAPPINKVMYDNKIHVLKNALGLHTAVSRVQGSKLKAKAEIRVATVFRNAPEPFLRMIVVHELAHLKEKEHNKAFYQLCCHMEPQYHQLEFDTRLWLTQLSLGQDKILEHHHHHH | not soluble
5 | MAGDPMEAIMKKLIGIATAAVFGLGIFTSSANAETVVTTDVLNVRENPTTESKVVGKLLNGNKIDVQNTENGWSKITLDGKDAFVSAEFTKSIYYVTANVLNVRAEANTNSEVLGKLKKDDVIETTNQVQNEWLQFEYNGKTAYVHVPFLTGTAPVIEKQETTAPAKAAAPAKAQAPVAQAKPAAKPAVKAAETNTPSGGRELTVVATAYTAHPSENGGTYGGRVLTAMGHDLTANPNMKMIAVDPKVIPLGSKVWVEGYGEAIAGDTGGAIKGTRIDILLGSDSAAQKWGRKTVKVKILKLEHHHHHH | not soluble
6 | MGSDKIHHHHHHMIPIVDSRIGAYLDGLLPEADPVVAAMEQIARERNIPIVDRQTGRLLYLLARIKQPQLVVVPGDGLGCASWWFARAISISSRVVMIDPDRDNVEHARRMLHDNGLIDRVELQVGDPLGIAAGQRDIDILFMDCDVFNGADVLERMNRCLAKNALLIAVNALRRGSVAESHEDPETAALREFNHHLSRRRDFFTTIVPVGNGVLLGYRLS | not soluble
7 | MGSSHHHHHHGGFSQSCLPNWIMHGKSCYLFSFSGNSWYGSKRHCSQLGAHLLKIDNSKEFEFIESQTSSHRINAFWIGLSRNQSEGPWFWEDGSAFFPNSFQVRNAVPQESLLHNCVWIHGSEVYNQICNTSSYSICEKEL | soluble
8 | MKIDILDKGFVELVDVMGNDLSAVRAARVSFDMGLKDEERDRHLIEYLMKHGHETPFEHIVFTFHVKAPIFVARQWFRHRIASYNELSGRYSKLSYEFYIPSPERLEGYKTTIPPERVTEKISEIVDKAYRTYLELIESGVPREVARIVLPLNLYTRFFWTVNARSLMNFLNLRADSHAQWEIQQYALAIARIFKEKCPWTFEAFLKYAYKGDILKEVQV | not soluble
9 | MSHIQRETSCSRPRLNSNLDADLYGYRWARDNVGQSGATIYRLYGKPNAPELFLKHGKGSVANDVTDEMVRLNWLTAFMPLPTIKHFIRTPDDAWLLTTAIPGKTAFQVLEEYPDSGENIVDALAVFLRRLHSIPVCNCPFNSDRVFRLAQAQSRMNNGLVDASDFDDERNGWPVEQVWKEMHKLLPFSPDSVVTHGDFSLDNLIFDEGKLIGCIDVGRVGIADRYQDLAILWNCLGEFSPSLQKRLFQKYGIDNPDMNKLQFHLMLDEFF | soluble
10 | MGSDKIHHHHHHMTLVASSCTDVLDQMPTTEDTSKEVYADAANYKKVLAKIYASYVLAGQGQGGDNGDLKSINKQDFSRGYFNLQEAATDEVANTWLSGNNLSDLTYISWDAKDSWVSDSYYWLFFNIALCNEFLRHCSDEEIARFSEAEQTEIRTFRSEARFMRSFSYWMVLDLYRQGPKVDENTPVIGYIPEAYDGIGMFDFIESELKELVAEGVSSALPATNEYGRASKPVAWALLARLYLNSAIYRGNVDTKYYTECITACKQVISNPAFYLEPEYAKLFNADNHKRTHEILFAMVCDATTSVTWGGGTYIICGSCGNSSTQDPAKYGLSNGWGMFRARGEMTAKFGDIATTKDSRAMFYTDGQAQFFTGAIDNQAEGYFFEKFSNLTDEGVAASNSAATGCSTDYPLLRLADIYLMAAEAQLRGGTGLSRAEALELVNQVRLRAYNQDESGKISDSDFTLDFILDERARELYLESVRRTDLIRFNKFVSADYIWQWKGGVLDGRAVNKKYNIYPIPDTDLTANPNLHNPLY | not soluble
11 | MGSDKIHHHHHHAATSNKKNTIKLISTNNNIKIPVYDRQGKQINGFTVESGANVTVIGKPIIVQQKYRKDVFEGIKINGKTYASLGDGGYIPINATGVITSKGMKITRDTAVYNKNGKKLSTYRGHTATLKKDSIVKYGGATTYTIPVSYFNIGNGRYVRASYVQEYNGQTVLTLNYNTFVYNKKGKRINYDGQRKLMNGGVVTTNSKIREAKSSDQNYFYSSANYTDKNKLAFTTTKIKGQDYLSIGKGEYIKIANVKTANGMILFTKGPITITLPSDTTIYSSNFKETKKQIAAGKKVILDKTEIDNSLSDPQLYFRIKGTNELIYWGDLGEYPGVDHTAVYDPNYYSIYSFPLRQFME | not soluble
12 | MNLPKKVRLVEVGPRDGLQNEKQPIEVADKIRLVDDLSAAGLDYIEVGSFVSPKWVPQMAGSAEVFAGIRQRPGVTYAALAPNLKGFEAALESGVKEVAVFAAASEAFSQRNINCSIKDSLERFVPVLEAARQHQVRVRGYISCVLGCPYDGDVDPRQVAWVARELQQMGCYEVSLGDTIGVGTAGATRRLIEAVASEVPRERLAGHFHDTYGQALANIYASLLEGIAVFDSSVAGLGGCPYAKGATGNVASEDVLYLLNGLEIHTGVDMHALVDAGQRICAVLGKSNGSRAAKALLAKA | soluble
13 | MLKKTLAALALGSALFTAGQAMAADYKIDKEGQHAFIEFRIKHLGYSWLYGRFNDFDGSFTFDEKNPSADKVKVTINTNSVDTNHAERDKHLRSGDFLNVSKNPTATFESTEVKANGDSADITGNLTLNGVTKPVTIKAKLIGQGDDPWGGYRAGFEGSATLKLKDFGIKMDLGPASQEVELLLSVEGIRQ | not soluble
14 | AEVEHYEPLQVHVQLEKVYLDGDVSIEHKHEKVFSMDDFWAAYAGWTLVEQKKGYVLFRKQMDDISPLSKVNGYIGVSDNGVISTFHGRPEPASEPIQSFFQIDLERLESHMQKNLLKGIPFRTKAEFEDVIEHMKTYSG | soluble
15 | NDDIIVNWVNETLREAEKSSSISSFKDPKISTSLPVLDLIDAIQPGSINYDLLKTENLNDDEKLNNAKYAISMARKIGARVYALPEDLVEVNPKMVMTVFACLMGKGMKRV | soluble
16 | MIEITFLGGGGGRFVTITQVRATGGFFIKASKNIYVDPGPGALVRMWRYKIDPRKVDVLFISHRHTDHCNDAEVLVEGMTYGVTKKRGTLIGSKSVVHGDENHTPALSKYHLDALEEVHAPNPGDRFKIGEDEMIITPSLHSDPTTIGFRLKTSYGDISYIPDTEYFEELVKWHDGARVIIAAVTRPRDMRIPFHLSSEDAVYLLKSMKQKPEVFIMTHAGMKMHFAGPYKEAQFIQNLTGVKTYVAKEGFKVSIGKEISVKTLRPARFVLEHHHHHH | soluble
17 | MSLQNMETRYTHSPADIRHYSTEQLRDEFLVEKVFIPGAISLTYTHNDRMIFGGVTPTTEELEIILDKELGVDYFLERRELGVINIGGPGFIEIDGAKETMKKQDGYYIGKETKHVRFSSENPDNPAKFYISCVPAHHKYPNVKISIDEITPMETGDPLTLNQRKIYQYIHPNVCESCQLQMGYTILEPGSAWNTMPCHTHERRMEAYVYFDMEEDTRIFHMMGKPDETKHLVMSNEQAAISPSWSIHSGVGTSNYSFIWAMCGENITYTDMDMVAMDQLKEGHHHHHH | soluble
18 | MGSDKIHHHHHHMTNLTSTHEVLAIGRLGVDIYPLQSGVGLADVQSFGKYLGGSAANVSVAAARHGHNSALLSRVGNDPFGEYLLAELERLGVDNQYVATDQTFKTPVTFCEIFPPDDFPLYFYREPKAPDLNIESADVSLDDVREADILWFTLTGFSEEPSRGTHREILTTRANRRHTIFDLDYRPMFWESPEEATKQAEWALQHSTVAVGNKEECEIAVGETEPERAGRALLERGVELAIVKQGPKGVMAMTKDETVEVPPFFVDVINGLGAGDAFGGALCHGLLSEWPLEKVLRFANTAGALVASRLECSTAMPTTDEVEASLNQKV | not soluble
19 | MAKQDVIELEGTVLDTLPNAMFKVELENGHEILAHVSGKIRMNYIRILPGDKVTVEMSPYDLTRGRITYRYK | not soluble
20 | MKSYHKELWMEVPSRMDFVNITRDVSRALDESGIREGLCLVNAMHITASVFINDDEPGLHADYKQWLEELAPHNPSHYQHNRTGEDNGDAHHKRQIMGREVVVAVTKGELHLGPWEQIFYGEFDGRRRKRVLIKIIGALEHHHHHH | soluble
21 | MTYMVSILLVSPRPGHDVATAERNDVLRATGLAPEQLEQVLIDDVEKHLPDFSRFDGIIVGGSPLNISNETYSDWQKHVHTELSRIVYSAIPSFFICYGNSFLVDLTGGTVGRTHPEDSGATIVSLTADGLTDRITRDLPTTFTSLTGHTENAICLGDSTVLLATGDTCPIQMIRANETTWACQFHAEMDAQAMKTRMDFYKDYGYFSPEDYDAIVSSLPSIDTTYSNRVLRNFIEVCEGKR | not soluble
22 | EAVIVVDERDVVIDLNPQAKAIIGTPGAAWIGRPLEDVLPGLIELRDSPTDDIPDRAEITVPVNGEERAYEVRQTPLHRGYGTVTGQLITLTD | not soluble
23 | MNKKIYVGMTADIMHPGLIHIIHEATKYGDVIVGLLTDKAIAEHKRLPYLTYDQRKEVVENIKGVCEVVPQEDWSYVPNLEKLKPDYIIHGDDWKTGPLREVREQVFEVMNAQGGKVIEIPYTRGINSSSLDKDIKAIGTTPDVRLKSLRRLIQAKPVVRILEAHDGLCGLIIENLEVQKGDKREVFDGMWSSSLTDSTSKGKPDIEAVDLTTRLQDLNNILECTTKPIIFDGDTGGKIEHFVFTVRTLERHGISAVIIEDKVGLKKNSLFGTDAIQTQDSIEGFCDKIRAGKNAQVTGDFMIIARIESLIAGKPMSDALERAYAYVQAGADGIMIHSKDKSGEDIREFCRTFRKEYAHVPIVVVPTTYDHVHESELHEWGANVVIYANHLLRAAYPAMMNVARTILENERAEEVRPLCMPIKEILELIPGTK | not soluble
